In the Immune Epitope Database (IEDB):
One block for each sequence: values may come before it.

Key:
[1] = molecular target: HLA-B*35:01; test: IEDB peptide-MHC binding, purified MHC/competitive/radioactivity; filed as Kd, often an IC50 or EC50 that approximates it; ≥ and ≤ were set here for values at or beyond the usual limits of such assays
[2] = molecular target: HLA-B*51:01; test: as above
[3] = molecular target: HLA-B*54:01; test: as above
[4] = molecular target: HLA-B*53:01; test: as above
[5] = molecular target: HLA-B*07:02; test: as above
[6] = molecular target: HLA-A*31:01; test: as above
[7] = molecular target: HLA-A*68:01; test: as above
[8] = molecular target: HLA-A*11:01; test: as above
[9] = molecular target: HLA-A*33:01; test: as above
[10] = molecular target: HLA-A*03:01; test: as above
[11] = molecular target: HLA-B*48:01; test: IEDB peptide-MHC binding, purified MHC/direct/fluorescence; filed as Kd, often an IC50 or EC50 that approximates it; ≥ and ≤ were set here for values at or beyond the usual limits of such assays
[12] = molecular target: HLA-A*02:06; test: IEDB peptide-MHC binding, purified MHC/competitive/radioactivity; filed as Kd, often an IC50 or EC50 that approximates it; ≥ and ≤ were set here for values at or beyond the usual limits of such assays
[13] = molecular target: HLA-A*26:01; test: IEDB peptide-MHC binding, purified MHC/competitive/fluorescence; filed as Kd, often an IC50 or EC50 that approximates it; ≥ and ≤ were set here for values at or beyond the usual limits of such assays; settings: source organism: Homo sapiens
[14] = molecular target: HLA-B*46:01; test: as above; settings: source organism: Homo sapiens
[15] = molecular target: HLA-B*51:01; test: as above; settings: source organism: Homo sapiens
[16] = molecular target: HLA-B*18:01; test: as above; settings: source organism: Homo sapiens
[17] = molecular target: HLA-B*27:03; test: as above; settings: source organism: Homo sapiens
[18] = molecular target: HLA-A*69:01; test: as above; settings: source organism: Homo sapiens
[19] = molecular target: HLA-B*57:01; test: as above; settings: source organism: Homo sapiens
[20] = molecular target: HLA-A*02:01; test: IEDB peptide-MHC binding, purified MHC/direct/fluorescence; filed as Kd, often an IC50 or EC50 that approximates it; ≥ and ≤ were set here for values at or beyond the usual limits of such assays; settings: source organism: Rattus norvegicus
[21] = molecular target: HLA-A*02:02; test: IEDB peptide-MHC binding, purified MHC/competitive/radioactivity; filed as Kd, often an IC50 or EC50 that approximates it; ≥ and ≤ were set here for values at or beyond the usual limits of such assays; settings: source organism: Vaccinia virus WR
[22] = molecular target: HLA-A*02:03; test: as above; settings: source organism: Vaccinia virus WR
[23] = molecular target: HLA-A*68:02; test: as above; settings: source organism: Vaccinia virus WR
[24] = molecular target: HLA-B*15:01; test: IEDB peptide-MHC binding, purified MHC/competitive/fluorescence; filed as Kd, often an IC50 or EC50 that approximates it; ≥ and ≤ were set here for values at or beyond the usual limits of such assays; settings: source organism: Homo sapiens
[25] = molecular target: HLA-A*02:01; test: IEDB peptide-MHC binding, purified MHC/competitive/radioactivity; filed as Kd, often an IC50 or EC50 that approximates it; ≥ and ≤ were set here for values at or beyond the usual limits of such assays; settings: source organism: Vaccinia virus WR
[26] = source organism: SARS coronavirus Tor2
[27] = source organism: Mammarenavirus guanaritoense
[28] = source organism: Vaccinia virus Copenhagen
[29] = source organism: Triticum aestivum
[30] = source organism: Vaccinia virus WR
[31] = source organism: Mammarenavirus machupoense

Sequence: APAHVSTIGV
Kd [1, 26]: 10.5 µM
Kd [2, 26]: 12.5 µM
Kd [3, 26]: 3.11 µM
Kd [4, 26]: 17 µM
Kd [5, 26]: 0.0344 µM

Sequence: CPMCCSKIL
Kd [1, 27]: 0.018 µM
Kd [2, 27]: 0.182 µM
Kd [3, 27]: 0.155 µM
Kd [4, 27]: 0.0629 µM
Kd [5, 27]: 0.0217 µM

Sequence: FILGIIITV
Kd [1, 28]: ≥ 39.6 µM
Kd [2, 28]: ≥ 68.4 µM
Kd [6, 28]: 1.17 µM
Kd [7, 28]: 3.21 µM
Kd [8, 28]: 19.6 µM
Kd [9, 28]: 4.51 µM
Kd [3, 28]: 3.34 µM
Kd [4, 28]: 5.54 µM
Kd [5, 28]: ≥ 32.7 µM
Kd [10, 28]: 1.5 µM

Kd [1, 29]: 0.519 µM
Kd [2, 29]: 0.246 µM
Kd [3, 29]: ≥ 32.4 µM
Kd [4, 29]: 0.519 µM
Kd [5, 29]: 0.0146 µM
Sequence: IPEQSRCQAI

Sequence: KPAMSTYSDI
Kd [1, 30]: ≥ 63.7 µM
Kd [2, 30]: 14 µM
Kd [3, 30]: 9.87 µM
Kd [4, 30]: 8.83 µM
Kd [5, 30]: 0.161 µM

Sequence: KPDGSDSMDV
Kd [1, 30]: ≥ 69.9 µM
Kd [2, 30]: ≥ 69.6 µM
Kd [3, 30]: ≥ 69.9 µM
Kd [4, 30]: ≥ 69.9 µM
Kd [5, 30]: 0.244 µM

Sequence: KPDHDGNTPL
Kd [1, 30]: 3.28 µM
Kd [2, 30]: ≥ 69.6 µM
Kd [3, 30]: ≥ 41 µM
Kd [4, 30]: 7.08 µM
Kd [5, 30]: 0.031 µM

Sequence: KPKPAVRYAI
Kd ([1]; source organism: Variola virus): ≥ 69.9 µM
Kd ([2]; source organism: Variola virus): ≥ 69.6 µM
Kd ([3]; source organism: Variola virus): 12.5 µM
Kd ([4]; source organism: Variola virus): ≥ 69.9 µM
Kd ([5]; source organism: Variola virus): 0.00472 µM

Sequence: KQIAEHATI
Kd ([11]; source organism: Bacillus thuringiensis): 0.351 µM

Sequence: KQLGQVMLL
Kd ([12]; source organism: Dengue virus 2 Jamaica/1409/1983): 0.00517 µM
Kd ([11]; source organism: dengue virus type 2): 0.0062 µM

Kd [13]: ≥ 20 µM
Kd [14]: ≥ 20 µM
Kd [15]: ≥ 20 µM
Kd [16]: ≥ 20 µM
Kd [17]: ≥ 20 µM
Kd [18]: ≥ 20 µM
Kd [19]: ≥ 20 µM
Kd [20]: 0.0048 µM
Sequence: KQMEDGHTL

Sequence: LMIFISSFLL
Kd [1, 30]: ≥ 20.9 µM
Kd [2, 30]: 1.6 µM
Kd [6, 30]: 0.284 µM
Kd [7, 30]: 0.283 µM
Kd [8, 30]: 1.21 µM
Kd [9, 30]: 0.707 µM
Kd [12, 30]: 0.0764 µM
Kd [21]: 0.00293 µM
Kd [3, 30]: 3.24 µM
Kd [4, 30]: 0.971 µM
Kd [5, 30]: ≥ 27.2 µM
Kd [22]: 0.0801 µM
Kd [10, 30]: 0.42 µM
Kd [23]: 0.0733 µM

Sequence: LPNVDLTTM
Kd [1, 30]: 0.000159 µM
Kd [2, 30]: 0.0622 µM
Kd [3, 30]: 0.717 µM
Kd [4, 30]: 0.000222 µM
Kd [5, 30]: 0.0549 µM

Kd [13]: ≥ 20 µM
Kd [15]: ≥ 20 µM
Kd [24]: ≥ 20 µM
Kd [18]: ≥ 20 µM
Sequence: LVKSAWLSL

Sequence: NPDQNTFPNI
Kd [1, 30]: ≥ 69.9 µM
Kd [2, 30]: ≥ 33.6 µM
Kd [3, 30]: ≥ 69.9 µM
Kd [4, 30]: 3.74 µM
Kd [5, 30]: ≥ 69.6 µM

Sequence: NPIQLSSYSL
Kd [1, 26]: 0.395 µM
Kd [2, 26]: 0.246 µM
Kd [3, 26]: 1.77 µM
Kd [4, 26]: 0.531 µM
Kd [5, 26]: 0.416 µM

Kd [1, 29]: 0.00619 µM
Kd [2, 29]: 0.101 µM
Kd [3, 29]: 11 µM
Kd [4, 29]: 0.478 µM
Kd [5, 29]: 0.149 µM
Sequence: QPYLQLQPF

Sequence: RPPLNRNYV
Kd [1, 26]: ≥ 21.4 µM
Kd [2, 26]: 10.3 µM
Kd [3, 26]: 0.661 µM
Kd [4, 26]: ≥ 78.2 µM
Kd [5, 26]: 0.061 µM

Sequence: SFSLESDSIK
Kd [1, 30]: ≥ 69.9 µM
Kd [2, 30]: ≥ 69.6 µM
Kd [6, 30]: 2.66 µM
Kd [7, 30]: 7.76 µM
Kd [8, 30]: 5.91 µM
Kd [9, 30]: ≥ 70 µM
Kd [12, 30]: ≥ 59.7 µM
Kd [21]: ≥ 70 µM
Kd [3, 30]: ≥ 69.9 µM
Kd [4, 30]: ≥ 69.9 µM
Kd [5, 30]: ≥ 69.6 µM
Kd [22]: ≥ 70.4 µM
Kd [10, 30]: ≥ 22 µM
Kd [25]: ≥ 69.4 µM
Kd [23]: ≥ 69.8 µM

Sequence: SPAHLINKLL
Kd [1, 30]: ≥ 51 µM
Kd [2, 30]: 5.34 µM
Kd [3, 30]: 2.96 µM
Kd [4, 30]: 6.85 µM
Kd [5, 30]: 0.0266 µM

Sequence: SPGEIKPKF
Kd [1, 30]: 8.55 µM
Kd [2, 30]: ≥ 70.2 µM
Kd [3, 30]: ≥ 51.1 µM
Kd [4, 30]: 0.174 µM
Kd [5, 30]: 0.0797 µM

Sequence: SRLLMRRMR
Kd ([11]; source organism: Yellow fever virus): ≥ 20 µM

Sequence: TFFSYLMKDK
Kd [1, 30]: ≥ 69.9 µM
Kd [2, 30]: ≥ 69.6 µM
Kd [6, 30]: 0.56 µM
Kd [7, 30]: 0.0959 µM
Kd [8, 30]: 0.0128 µM
Kd [9, 30]: 2.69 µM
Kd [12, 30]: ≥ 69.8 µM
Kd [21]: ≥ 50.3 µM
Kd [3, 30]: ≥ 69.9 µM
Kd [4, 30]: ≥ 24.2 µM
Kd [5, 30]: 16.2 µM
Kd [22]: ≥ 70.4 µM
Kd [10, 30]: 1.6 µM
Kd [25]: ≥ 69.4 µM
Kd [23]: ≥ 69.8 µM

Sequence: VPINVAEAY
Kd [1, 31]: 0.00628 µM
Kd [2, 31]: ≥ 57 µM
Kd [3, 31]: ≥ 50.5 µM
Kd [4, 31]: 0.202 µM
Kd [5, 31]: 13.7 µM

Sequence: VPTNDHIPVV
Kd [1, 30]: 10.6 µM
Kd [2, 30]: 0.0509 µM
Kd [3, 30]: 0.000661 µM
Kd [4, 30]: 12 µM
Kd [5, 30]: 0.17 µM
